The values that follow are results of earlier work, collected in PMC9836085.

In data set [1] the target is Sas6 (Drosophila melanogaster) (UniProt Q9VAC8).
The target in data set [2] is Rab6 (Drosophila melanogaster) (UniProt O18334).
UniProt O18334, sequence (O18334 whole entry): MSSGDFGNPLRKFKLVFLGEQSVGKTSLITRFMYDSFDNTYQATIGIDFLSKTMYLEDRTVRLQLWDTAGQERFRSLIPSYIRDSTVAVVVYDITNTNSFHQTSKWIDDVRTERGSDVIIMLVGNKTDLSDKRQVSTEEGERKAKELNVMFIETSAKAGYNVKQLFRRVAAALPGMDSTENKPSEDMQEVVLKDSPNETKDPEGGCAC

UniProt Q9VAC8, sequence (Q9VAC8 whole entry): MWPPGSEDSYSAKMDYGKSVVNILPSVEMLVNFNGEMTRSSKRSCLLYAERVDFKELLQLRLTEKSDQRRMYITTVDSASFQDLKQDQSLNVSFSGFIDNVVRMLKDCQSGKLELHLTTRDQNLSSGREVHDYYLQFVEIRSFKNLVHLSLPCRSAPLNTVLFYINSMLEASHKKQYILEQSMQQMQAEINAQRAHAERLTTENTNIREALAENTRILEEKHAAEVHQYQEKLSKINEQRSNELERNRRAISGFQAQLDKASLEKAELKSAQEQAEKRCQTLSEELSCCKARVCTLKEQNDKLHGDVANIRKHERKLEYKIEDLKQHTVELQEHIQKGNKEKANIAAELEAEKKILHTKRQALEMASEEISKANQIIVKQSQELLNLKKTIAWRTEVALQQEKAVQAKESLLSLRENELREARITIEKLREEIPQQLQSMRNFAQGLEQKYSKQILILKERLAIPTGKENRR

As to Gorab (from UniProt Q8IQQ4), the Kd – broadly, a measure of binding affinity in units of concentration – in data set [1] was 47 nM; in data set [2], 2240 nM.
